Source: article PMC9394474 (Viruses, 2022)

Legend:
Assay in all cases: ITC
Conditions in all cases: both partners purified
mouse TRIM7-PRYSPRY = biological target: T1, mouse TRIM7-PRYSPRY (mouse, UniProt Q923T7 342-510)
T1 construct: vector pOPTH; also called mTRIM7; mTrim7-PRYPSRY

human hisTRIM7-PRYSPRY = biological target: T2, human hisTRIM7-PRYSPRY (human, UniProt Q9C029 342-511)
T2 construct: vector pOPTH; also called hTRIM7-PRYSPRY; hTRIM7

hisMBP-TRIM7-CC-PRYSPRY = hisMBP-TRIM7-CC-PRYSPRY (human, UniProt Q9C029 165-511)

Row | Binder | binding result (mouse TRIM7-PRYSPRY) | further results
1 | rabbit glycogenin-1, full length (natural protein, vector pOPTH; also called rbGYG1; full-length rbGYG1) MTDQAFVTLTTNDAYAKGALVLGSSLKQHRTSRRLAVLTTPQVSDTMRKALEIVFDEVITVDILDSGDSAHLTLMKRPELGVTLTKLHCWSLTQYSKCVFMDADTLVLANIDDLFEREELSAAPDPGWPDCFNSGVFVYQPSVETYNQLLHVASEQGSFDGGDQGLLNTFFNSWATTDIRKHLPFIYNLSSISIYSYLPAFKAFGANAKVVHFLGQTKPWNYTYDTKTKSVRSEGHDPTMTHPQFLNVWWDIFTTSVVPLLQQFGLVQDTCSYQHVEDVSGAVSHLSLGETPATTQPFVSSEERKERWEQGQADYMGADSFDNIKKKLDTYLQ | binds | –
2 | AAAAALQ | – | Kd (human hisTRIM7-PRYSPRY): 8 µM
3 | hexahistidine-tagged full-length human GYG1, GN1 isoform (natural protein, also called hsGYG1-GN1; hGYG1-GN1) MTDQAFVTLTTNDAYAKGALVLGSSLKQHRTTRRLVVLATPQVSDSMRKVLETVFDEVIMVDVLDSGDSAHLTLMKRPELGVTLTKLHCWSLTQYSKCVFMDADTLVLANIDDLFDREELSAAPDPGWPDCFNSGVFVYQPSVETYNQLLHLASEQGSFDGGDQGILNTFFSSWATTDIRKHLPFIYNLSSISIYSYLPAFKVFGASAKVVHFLGRVKPWNYTYDPKTKSVKSEAHDPNMTHPEFLILWWNIFTTNVLPLLQQFGLVKDTCSYVNVEDVSGAISHLSLGEIPAMAQPFVSSEERKERWEQGQADYMGADSFDNIKRKLDTYLQ | – | stoichiometry N (hisMBP-TRIM7-CC-PRYSPRY): 1
4 | mouse glycogenin-1, full length (natural protein, also called mGYG1; mGYG) MTDQAFVTLTTNDAYAKGALVLGSSLKQHRTTRRMVVLTSPQVSDSMRKVLETVFDDVIMVDVLDSGDSAHLTLMKRPELGITLTKLHCWSLTQYSKCVFMDADTLVLSNIDDLFEREELSAAPDPGWPDCFNSGVFVYQPSIETYNQLLHLASEQGSFDGGDQGLLNTYFSGWATTDITKHLPFVYNLSSISIYSYLPAFKAFGKNAKVVHFLGRTKPWNYTYNPQTKSVNCDSQDPTVSHPEFLNLWWDTFTTNVLPLLQHHGLVKDASSYLMMEHVSGALSDLSFGEAPAAPQPSMSSEERKERWEQGQADYMGADSFDNIKRKLDTYLQ | binds | –
